Data as given in patent publication US9005937B2, “Dual cofactor specific ribitol dehydrogenase and use thereof” (Konkuk University Industrial Cooperation Corp., priority 2011, dated 2015).
Entries after “also recorded” stand apart in the source; their conditions may differ. Read-outs that look alike come from different tables or passages of the source.

Legend:
ribitol dehydrogenase = type: biochemical, Zymomonas mobilis
[1] = target: T1, Zymomonas mobilis ribitol dehydrogenase, wild-type, SEQ ID NO: 4 (Zymomonas mobilis, UniProt Q5NQS1); assay: Dynamical (kinetic) parameters of ribitol dehydrogenase to coenzyme NAD(H)/NADP(H), wild-type; type: biochemical; details: NADP 0.01 to 3 mM
T1 sequence (Q5NQS1 74-338): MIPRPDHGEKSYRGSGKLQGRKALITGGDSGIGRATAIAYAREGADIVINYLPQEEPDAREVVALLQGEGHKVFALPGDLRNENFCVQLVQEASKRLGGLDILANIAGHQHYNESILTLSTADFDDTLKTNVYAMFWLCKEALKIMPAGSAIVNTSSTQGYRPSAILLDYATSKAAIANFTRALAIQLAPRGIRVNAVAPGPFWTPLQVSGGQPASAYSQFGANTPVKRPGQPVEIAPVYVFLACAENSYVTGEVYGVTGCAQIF
Protocol: The optimum pH on dehydrogenation activity of the ribitol dehydrogenase was measured using 20 mM of Tris-HCl buffer. The enzyme activity was determined by monitoring the change per minute in absorbance at 340 nm while the sample was reacted in the presence of NAD(H) and ribitol.
Then, dynamical parameters were measured through a nonlinear regression analysis.

[2] = substrate: NC(=O)c1ccc[n+]([C@@H]2O[C@H](COP(=O)(O)OP(=O)(O)OC[C@H]3O[C@@H](n4cnc5c(N)ncnc54)[C@H](OP(=O)(O)O)[C@@H]3O)[C@@H](O)[C@H]2O)c1; assay: Dynamical parameters to coenzyme, variant S156C; type: biochemical, Zymomonas mobilis; details: other: NADP 0.01 to 3 mM, ribitol, pH 9.0
Text: (§1) There were no differences between the expression amount of various amino acid variants of Ser 156 and the expression amount of wide-type. The dynamical parameter of each of variants was confirmed using the above variants.

[3] = substrate: NC(=O)c1ccc[n+]([C@@H]2O[C@H](COP(=O)(O)OP(=O)(O)OC[C@H]3O[C@@H](n4cnc5c(N)ncnc54)[C@H](OP(=O)(O)O)[C@@H]3O)[C@@H](O)[C@H]2O)c1; assay: Dynamical parameters to coenzyme, variant S156Y; type: biochemical, Zymomonas mobilis; details: other: NADP 0.01 to 3 mM, ribitol, pH 9.0
Text: as §1

[4] = substrate: NC(=O)c1ccc[n+]([C@@H]2O[C@H](COP(=O)(O)OP(=O)(O)OC[C@H]3O[C@@H](n4cnc5c(N)ncnc54)[C@H](OP(=O)(O)O)[C@@H]3O)[C@@H](O)[C@H]2O)c1; assay: Dynamical parameters to coenzyme, variant S156W; type: biochemical, Zymomonas mobilis; details: other: NADP 0.01 to 3 mM, ribitol, pH 9.0
Text: as §1

[5] = substrate: NC(=O)c1ccc[n+]([C@@H]2O[C@H](COP(=O)(O)OP(=O)(O)OC[C@H]3O[C@@H](n4cnc5c(N)ncnc54)[C@H](OP(=O)(O)O)[C@@H]3O)[C@@H](O)[C@H]2O)c1; assay: Dynamical parameters to coenzyme, variant S156D; type: biochemical, Zymomonas mobilis; details: other: NADP 0.01 to 3 mM, ribitol, pH 9.0
Text: In addition, the present invention provides a ribitol dehydrogenase mutant selected from the group consisting of a) a mutant, in which serine, an amino acid at position 156 of the ribitol dehydrogenase having an amino acid sequence as set forth in SEQ ID NO: 4 is substituted with aspartic acid; and b) a mutant, in which tyrosine, an amino acid at position 51 of the ribitol dehydrogenase having an amino acid sequence as set forth in SEQ ID NO: 4 is substituted with aspartic acid and serine, an amino acid at position 156 is substituted with alanine.
The mutants have preferably amino acid sequences as set forth in SEQ ID NOS: 5 and 6, respectively, but the present invention is not limited thereto.
as §1

[6] = metal ion 10 mM, enzyme treated with 10 mM EDTA for 24 hours and dialyzed

[Cl-].[Cl-].[Zn+2] [ZnCl2] was tested, and the “Relative activity (%) 10 mM” value (ribitol dehydrogenase; [6]) was 0.3%.

NC(=O)c1ccc[n+]([C@@H]2O[C@H](COP(=O)(O)OP(=O)(O)OC[C@H]3O[C@@H](n4cnc5c(N)ncnc54)[C@H](OP(=O)(O)O)[C@@H]3O)[C@@H](O)[C@H]2O)c1 [NADP^+] was tested, and the “kcat (NADP^+)” value [1] was 2.79 ± 0.15 s⁻¹.

[Cl-].[Cl-].[Co+2] [CoCl2] was tested, and the “Relative activity (%) 10 mM” value (ribitol dehydrogenase) was 62.5% and the “activity of enzyme in the presence of metal ion (in words)” value (ribitol dehydrogenase) was “maximum enzyme activity; also recorded: the activity of enzyme was observed”.

With [Cl][Mn][Cl] [MnCl2] the “Relative activity (%) 10 mM” value (ribitol dehydrogenase; [6]) was 100% and the “activity of enzyme in the presence of metal ion (in words)” value (ribitol dehydrogenase; metal ion 10 mM, listed as Mn^2+) was “maximum enzyme activity; also recorded: the activity of enzyme was observed”.

In the case of O=S(=O)([O-])[O-].[Cu+2] [CuSO4], the “Relative activity (%) 10 mM” value (ribitol dehydrogenase; [6]) is reported as 0.1%.

[Cl-].[Cl-].[Mg+2] [MgCl2] was tested, and the “Relative activity (%) 10 mM” value (ribitol dehydrogenase; [6]) was 0.4%.

In the case of [Cl][Fe]([Cl])[Cl] [FeCl3], the “Relative activity (%) 10 mM” value (ribitol dehydrogenase; [6]) is reported as 0.2%.

In the case of [Ca+2].[Cl-].[Cl-] [CaCl2], the “Relative activity (%) 10 mM” value (ribitol dehydrogenase; [6]) is reported as 1.1%.

B1: Zymomonas mobilis ribitol dehydrogenase (SEQ ID NO: 4) variant S156C (Zymomonas mobilis subsp. mobilis ZM4 = ATCC 31821; S229C) (protein)
chain: MIPRPDHGEKSYRGSGKLQGRKALITGGDSGIGRATAIAYAREGADIVINYLPQEEPDAREVVALLQGEGHKVFALPGDLRNENFCVQLVQEASKRLGGLDILANIAGHQHYNESILTLSTADFDDTLKTNVYAMFWLCKEALKIMPAGSAIVNTCSTQGYRPSAILLDYATSKAAIANFTRALAIQLAPRGIRVNAVAPGPFWTPLQVSGGQPASAYSQFGANTPVKRPGQPVEIAPVYVFLACAENSYVTGEVYGVTGCAQIF
With B1 the Km [2] was 170 ± 20 µM, the kcat [2] was 2.05 ± 0.10 s⁻¹ and the kcat/Km [2] was 12100 M⁻¹ s⁻¹.

B2: Zymomonas mobilis ribitol dehydrogenase (SEQ ID NO: 4) variant S156Y (Zymomonas mobilis subsp. mobilis ZM4 = ATCC 31821; S229Y) (protein)
chain: MIPRPDHGEKSYRGSGKLQGRKALITGGDSGIGRATAIAYAREGADIVINYLPQEEPDAREVVALLQGEGHKVFALPGDLRNENFCVQLVQEASKRLGGLDILANIAGHQHYNESILTLSTADFDDTLKTNVYAMFWLCKEALKIMPAGSAIVNTYSTQGYRPSAILLDYATSKAAIANFTRALAIQLAPRGIRVNAVAPGPFWTPLQVSGGQPASAYSQFGANTPVKRPGQPVEIAPVYVFLACAENSYVTGEVYGVTGCAQIF
Work on B2 yielded a Km [3] of 230 ± 130 µM, a kcat [3] of 1.42 ± 0.16 s⁻¹ and a kcat/Km [3] of 6170 M⁻¹ s⁻¹.

B3: Zymomonas mobilis ribitol dehydrogenase (SEQ ID NO: 4) variant S156W (Zymomonas mobilis subsp. mobilis ZM4 = ATCC 31821; S229W) (protein)
chain: MIPRPDHGEKSYRGSGKLQGRKALITGGDSGIGRATAIAYAREGADIVINYLPQEEPDAREVVALLQGEGHKVFALPGDLRNENFCVQLVQEASKRLGGLDILANIAGHQHYNESILTLSTADFDDTLKTNVYAMFWLCKEALKIMPAGSAIVNTWSTQGYRPSAILLDYATSKAAIANFTRALAIQLAPRGIRVNAVAPGPFWTPLQVSGGQPASAYSQFGANTPVKRPGQPVEIAPVYVFLACAENSYVTGEVYGVTGCAQIF
In the case of B3, the Km [4] is reported as 210 ± 30 µM, the kcat [4] is reported as 2.05 ± 0.11 s⁻¹ and the kcat/Km [4] is reported as 9760 M⁻¹ s⁻¹.

B4: Zymomonas mobilis ribitol dehydrogenase (SEQ ID NO: 4) variant S156D, SEQ ID NO: 5 (Zymomonas mobilis subsp. mobilis ZM4 = ATCC 31821; N321D/S229D) (protein)
chain: MIPRPDHGEKSYRGSGKLQGRKALITGGDSGIGRATAIAYAREGADIVINYLPQEEPDAREVVALLQGEGHKVFALPGDLRNENFCVQLVQEASKRLGGLDILANIAGHQHYNESILTLSTADFDDTLKTNVYAMFWLCKEALKIMPAGSAIVNTDSTQGYRPSAILLDYATSKAAIANFTRALAIQLAPRGIRVNAVAPGPFWTPLQVSGGQPASAYSQFGANTPVKRPGQPVEIAPVYVFLACAEDSYVTGEVYGVTGCAQIF
B4 showed a Km [5] of 300 ± 30 µM, a kcat [5] of 2.46 ± 0.21 s⁻¹ and a kcat/Km [5] of 8200 M⁻¹ s⁻¹.
